Reference: US9758792B2, “Glyphosate resistant class 1 EPSPS genes” (SYNGENTA PARTICIPATIONS AG, priority 2013, dated 2017)

Key:
[1] = molecular target: native EPSPS from E. coli (Escherichia coli, UniProt P0A6D3); details: read-out: apparent Km for PEP; cited from earlier work
[2] = tested on: T0 transgenic tobacco plants; experiment: Spray with glyphosate (Touchdown) on ZmEPSPS mutant containing tobacco; type: in vivo; details: for tolerance to Touchdown spray: 2× and 4× field rates; for tolerance to Touchdown spray / herbicide damage: 2 weeks post treatment; for herbicide damage: 4× field rates as printed in the text; for Damage: assessed 2 weeks post treatment
Method: T0 transgenic tobacco plants were grown on soil for 4 weeks in Conviron growth chambers. These plants were sprayed with 2×, 4× and 8× Touchdown herbicide at 2×, 4× and 8× field rate (1× field rate=1680 g AE/Ha), respectively, and the herbicide damage was assessed 2 weeks post treatment. […]

[3] = tested on: tobacco leaf discs; experiment: Screening maize mutants using tobacco regeneration system on glyphosate medium; type: cell-based; details: regeneration medium containing 50 nM glyphosate and 200 mg/L Timentin
Method: The efficacy of maize mutant genes (Table 2) were tested using a tobacco leaf discs transformation/regeneration system. […] Additionally, a third mutant comprising the mutations of mutant #8 and #13 is possible resulting in an […] mutant.

[4] = Touchdown 2X field rate (1X = 1680 g AE/Ha)
[5] = Touchdown 4X field rate (1X = 1680 g AE/Ha)
[6] = Touchdown 8X field rate (1X = 1680 g AE/Ha)

Sequence of native EPSPS from E. coli (P0A6D3 whole entry): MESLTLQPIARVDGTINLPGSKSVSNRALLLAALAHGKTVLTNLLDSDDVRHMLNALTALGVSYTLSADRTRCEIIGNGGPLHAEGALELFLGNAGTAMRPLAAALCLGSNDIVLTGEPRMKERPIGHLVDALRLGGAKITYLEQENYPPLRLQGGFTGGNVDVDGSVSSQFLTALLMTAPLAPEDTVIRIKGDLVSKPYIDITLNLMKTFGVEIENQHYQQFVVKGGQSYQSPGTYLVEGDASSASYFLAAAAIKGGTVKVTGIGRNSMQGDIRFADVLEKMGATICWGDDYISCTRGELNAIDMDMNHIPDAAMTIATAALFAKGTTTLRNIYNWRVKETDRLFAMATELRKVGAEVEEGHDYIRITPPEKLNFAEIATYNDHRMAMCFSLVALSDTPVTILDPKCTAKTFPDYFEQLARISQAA

In the case of `C=C(OP(=O)(O)O)C(=O)O` [PEP, phosphoenolpyruvic acid], the Km [1] is given as 10 µM.

B1: ZmEPSPS-20: maize EPSPS mutant gene/protein, A68D and T102I; contains Table 2 mutant #13; SEQ ID NO. 6 (protein)
chain: AGAEEIVLQPIKEISGTVKLPGSKSLSNRILLLAALSEGTTVVDNLLNSEDVHYMLGALRTLGLSVEXDKAAKRAVVVGCGGKFPVEDAKEEVQLFLGNAGIAMRPLTAAVTAAGGNATYVLDGVPRMRERPIGDLVVGLKQLGADVDCFLGTDCPPVRVNGIGGLPGGKVKLSGSISSQYLSALLMAAPLALGDVEIEIIDKLISIPYVEMTLRLMERFGVKAEHSDSWDRFYIKGGQKYKSPKNAYVEGDASSASYFLAGAAITGGTVTVEGCGTTSLQGDVKFAEVLEMMGAKVTWTETSVTVTGPPREPFGRKHLKAIDVNMNKMPDVAMTLAVVALFADGPTAIRDVASWRVKETERMVAIRTELTKLGASVEEGPDYCIITPPEKLNVTAIDTYDDHRMAMAFSLAACAEVPVTIRDPGCTRKTFPDYFDVLSTFVKN
modifications: Mutated zea mays; (68)..(68) X = D or E
For B1, the “tolerance to Touchdown spray” value [2] was “completely tolerant”, the herbicide damage [2] was “only minor damage” and the Damage [2, 4] was “No damage”. For the same molecule, the Damage [2, 5] was “No damage”, the Damage [2, 6] was “Minor damage at shoot apex” and the “ability to regenerate on glyphosate media” value [3] was “tolerant mutants”.

B2: ZmEPSPS-27: maize EPSPS mutant gene/protein, A68E and G101C; contains Table 2 mutant #8; SEQ ID NO. 7 (protein)
chain: AGAEEIVLQPIKEISGTVKLPGSKSLSNRILLLAALSEGTTVVDNLLNSEDVHYMLGALRTLGLSVEXDKAAKRAVVVGCGGKFPVEDAKEEVQLFLGNACTAMRPLTAAVTAAGGNATYVLDGVPRMRERPIGDLVVGLKQLGADVDCFLGTDCPPVRVNGIGGLPGGKVKLSGSISSQYLSALLMAAPLALGDVEIEIIDKLISIPYVEMTLRLMERFGVKAEHSDSWDRFYIKGGQKYKSPKNAYVEGDASSASYFLAGAAITGGTVTVEGCGTTSLQGDVKFAEVLEMMGAKVTWTETSVTVTGPPREPFGRKHLKAIDVNMNKMPDVAMTLAVVALFADGPTAIRDVASWRVKETERMVAIRTELTKLGASVEEGPDYCIITPPEKLNVTAIDTYDDHRMAMAFSLAACAEVPVTIRDPGCTRKTFPDYFDVLSTFVKN
modifications: Mutated zea mays; (68)..(68) X = D or E
With B2 the “tolerance to Touchdown spray” value [2] was “completely tolerant”, the herbicide damage [2] was “only minor damage” and the Damage [2, 4] was “No damage”. For the same molecule, the Damage [2, 5] was “No damage”, the Damage [2, 6] was “Minor damage, some” and the “ability to regenerate on glyphosate media” value [3] was “tolerant mutants”.
